{"source": "paper PMC6917787", "about": "“Structural basis of nucleosome assembly by the Abo1 AAA+ ATPase histone chaperone” (Nature Communications, 2019)", "molecules": {"B1": {"name": "Abo1 (aa243–1190), wild type (enzyme, Schizosaccharomyces pombe, UniProt O14114 243-1190, looked up)", "chain": "GRIREKSDLADSDPLGVDSSLSFESVGGLDNYINQLKEMVMLPLLYPEIFQRFNMQPPRGVLFHGPPGTGKTLMARALAAACSSENKKVSFYMRKGADCLSKWVGEAERQLRLLFEEAKSTQPSIIFFDEIDGLAPVRSSKQEQIHASIVSTLLALMDGMESRGQVIIIGATNRPDAVDPALRRPGRFDREFYFPLPDRDARKKIIEIHTRNWDPPVPEWLCSMLAEKSKGYGGADLRALCTEAALNSIKRTYPQLYRSTKRLQIDPKTIKVKVKDFVMSMKRMIPSSERSSISPSKPLSPELKPLLNEAFQDIEKTLQKLMPVASKLNPLEEVMYDDPKENDFEYQQRLETFETLRIYKPRFLICGRKGLGQTALGPAILQQYEGVHVQSFDMSTLLQDSTQSIETSIIHLFLEVRRHTPSIIYIPDIDNWLNVLPLTAITTFSSMLERLDFSDQILFLALSSSPLSELHPQLREWFSSKQSVYSLQYPTRDSIIAFFQPILELIKASPTELPGGIPRKRRVLPELPLAPDPPPFTSQKITLKQTKQADMRLLNKLKIKLNALLGSLRARYRKFKKPLIDFNDIYCVDPETGHSYRSREECHYEFVDDVVKQIGSDQKFSMMSLEEIEKRTWDNCYCTPKQFVHDIKLILRDALQLEDSETIKRAQEMYANVLLGVEDMEDDQFSQRCERMALREAERRKLRHGKLQKHLDETKADMQFTSEKPSVDESITEVDDAIKDGPPVLAETLTNSLMEDVGPENVDMDIEDNEIFTNQSTMSVPSMLVENEESPKPDEYIDQKDKVQSPLLNGKSPVGVPSEAALRVSTDVSTNISSNGRADIPVDTLITSPADVPNNAPTDAHNITSADGHIENIEQEVVFPDLVFDEDRLTPLKQLLIDSTTGFTVDQLLHLHSFLYQIIWNTKSEWNRNSVVDECERAVKEFMINALQ", "notes": "Abo1, Schizosaccharomyces pombe ATAD2 homolog, aa243–1190 (acidic N-terminus truncated; two AAA+ domains, bromodomain and C-terminal domain); Gene synthesized (Genscript), pFastBac-HTB; also called recombinant Abo1; wild-type Abo1; source: Sf9 (baculovirus), purified (Ni-NTA, TEV cleavage, HiTrapQ); not shown: 6xHis, N-terminal, cleaved"}, "B2": {"name": "Abo1 Walker B mutant (E372Q), aa243–1190 (enzyme, Schizosaccharomyces pombe, UniProt O14114 243-1190, looked up)", "chain": "B1 chain with E130Q", "notes": "Abo1, Schizosaccharomyces pombe, aa243–1190, Walker B mutation E372Q; also called ATP-Abo1 Walker B mutant; ATP-Abo1; source: Sf9 (baculovirus), purified (Ni-NTA, TEV cleavage, HiTrapQ); not shown: 6xHis, N-terminal, cleaved"}}, "key": {"[1]": {"system": "Histone H3-H4, Cy5-labelled ((only implied by the reviewer comments))", "test": "single-molecule DNA curtain", "conditions": "DNA curtain: 5 nM Abo1 and 12.5 nM Cy5-H3-H4 pre-incubated on ice 15 min with 1 mM nucleotide, then 15 min with DNA without flow, YOYO-1 washed out in assay …"}, "[2]": {"target": "Cy3-labeled histone H3–H4 (X. laevis) (UniProt P84233)", "test": "fluorescence polarisation; fluorescence anisotropy; 0–1 μM Abo1 added to 20 nM Cy3-labeled H3–H4; 30 mM HEPES pH 7.5, 200 mM NaCl, 1 % glycerol, 2 mM MgCl2, 0.01 % NP-40; room temperature; affinity not significantly changed with nucleotide"}, "[3]": {"target": "the molecule itself", "test": "SEC; Superose6 gel filtration of purified Abo1 in buffer with 2 mM EDTA, 2 mM MgCl2 or 2 mM MgATP"}, "[4]": {"target": "the molecule itself", "test": "cryo-EM structure; Abo1 in 20 mM HEPES pH7.5, 250 mM NaCl, 1 mM DTT, 0.025 % octyl β-D-glucoside with 2 mM MgCl2 (apo), 2 mM MgADP or 2 mM MgATP (Walker B mutant)"}}, "note": "Residue numbers refer to the chain shown, from its start. Numbers in names are those of the source.", "data": [{"molecule": "lambda phage DNA (single-tethered DNA curtain)", "values": [{"measurement": "binding signal (% DNA with bound H3-H4)", "setting": "[1]", "result": 5.24}, {"measurement": "binding signal (% DNA with bound H3-H4)", "setting": "[1]; loading by wild-type Abo1 (5 nM), 1 mM ATP", "result": 85}, {"measurement": "binding signal (% DNA with bound H3-H4)", "setting": "[1]; wild-type Abo1, no ATP", "result": "< 10"}]}, {"molecule": "B1", "values": [{"measurement": "Kd", "setting": "[2]", "result": 23, "unit": "nM"}, {"measurement": "stoichiometry N", "setting": "[3]", "result": 6}]}, {"molecule": "B2", "values": [{"measurement": "binding result", "setting": "[4]", "result": "binds"}]}]}
